Experimental data as given in patent US20230015590A1 (JIANGSU ALPHAMAB BIOPHARMACEUTICALS, published 2023).

Target: T1, human PD-L1 (WT) (human, UniProt Q9NZQ7 19-127, limits assumed)
T1 construct: also called human PD-L1 N-terminal IgV domain
Test: affinity measurement, method not stated

T1 sequence (Q9NZQ7 19-127 limits assumed): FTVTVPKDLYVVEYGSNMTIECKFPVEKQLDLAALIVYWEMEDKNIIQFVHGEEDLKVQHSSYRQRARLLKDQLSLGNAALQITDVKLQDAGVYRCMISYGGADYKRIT

Kd: 5.92 nM
B1: PD-L1 ISVD-9 (VHH)
VHH: QVQLVESGGGLVQPGGSLRLSCAASGKMSSRRCMAWFRQAPGKERERVAKLLTTSGSTYLADSVKGRFTISRDNSKNTVYLQMNSLRAEDTAVYYCAADSFEDPTCTLVTSSGAFQYWGQGTLVTVSS
notes: also called ISVD specific for PD-L1; aPDL1.9
